# Assay results as given in PMC11519390.
# B1: HA-tagged wildtype Drosophila CYRI [Drosophila] / GST-tagged constitutively active Rac1 [Drosophila] (parent)
# chain 1: MGKLLSLLSRDDSNCCAAKSYDVFLDFENAAPTETERAVYDEVERVLRESEVVLDEIQIYRGAGKEIREAIADPSPEVTAKAWAAVLPLVNKLKRCYEHSMELDKIVPKLLGQLVGGKLNPTQHLETQQALVKQLAEILEFVLKFDEYKMKTPAIQNDFSYYRRIVSRQRVDSTENMLVSTELANRMSLFYAHATPMLKVLSEATSKFVNDNADDVQNTTETLGTMAKVCLRMLENPKLLQQIEREDTKMLVLRVMVGLVILYDHVHPEGAFVRGAHVDVKGCVRLLQAQPAIKAEPLLNALRYTTKHLNGENTPKNIQRLLAA
# chain 2: not shown
# Variants of: B1
# Assay: GST pull-down, western blot quantification
# Settings: with GST-tagged constitutively active Rac1 Q61L [Drosophila]; Signals normalized to loaded input (1% of the starting lysate material); three independent experiments; read off a plot
row,Variant,response (% bound input)
1,chain 1 R163D R164D,0.015
